Sequences and labels used below:
B1: LisMon, ADC from Listeria Monocytogenes (Listeria monocytogenes EGD-e) (protein)
chain 1: MFRTMMNGKIHRATVTEANLNYVG
chain 2: SITIDSAILEAVDMLPNEKVQIVNNNNGARIETYIIPGEPGSGVICLNGAAARHVQVGDVVIIMSYGMFTDEEAKTHEPKIVVLDEKNHIEMILPEEKAHTTL
B2: CjADC (CorJei), L-aspartate α-decarboxylase from Corynebacterium jeikeium (Corynebacterium jeikeium K411) (protein)
chain 1: MLRTMLKSKIHRATVTQADLHYVG
chain 2: SCTIDADLMEAADILEGEQIDIVDIDNGNRLTTYAITGDRGTGVIGINGAAARLISPGDLVIIIGYAQYSEEDLKNYASRVVFVDGNNKQVELGGDPAQVPDGSGLKNPRHPEA
B3: BacThe, ADC from Bacteroides thetaiotaomicron (Bacteroides thetaiotaomicron VPI-5482) (protein)
chain 1: MMIEVLKSKIHCARVTEANLNYMG
chain 2: SITIDEDLLDAANMIPGEKVYIADNNNGERFETYIIKGERGSGKICLNGAAARKVQPDDIVIIMSYALMDFEEAKSFKPTVIFPDPATNSVVK
B4: BsADC (BacSub), ADC from B. subtilis (Bacillus subtilis subsp. subtilis str. 168) (protein)
chain 1: MYRTMMSGKLHRATVTEANLNYVG
chain 2: SITIDEDLIDAVGMLPNEKVQIVNNNNGARLETYIIPGKRGSGVICLNGAAARLVQEGDKVIIISYKMMSDQEAASHEPKVAVLNDQNKIEQMLGNEPARTIL
B5: CorGlu, ADC from Corynebacterium glutamicum (Corynebacterium glutamicum ATCC 13032) (protein)
chain 1: MLRTILGSKIHRATVTQADLDYVG
chain 2: SVTIDADLVHAAGLIEGEKVAIVDITNGARLETYVIVGDAGTGNICINGAAAHLINPGDLVIIMSYLQATDAEAKAYEPKIVHVDADNRIVALGNDLAEALPGSGLLTSRSI

The test system of one data set is N[C@@H](CC(=O)O)C(=O)O. As to the kind of experiment: HPLC of beta-alanine, Michaelis-Menten fit. The data set is classed as biochemical, Corynebacterium jeikeium. Particulars: sodium L-aspartate 1-100 mM, pH 7.0, 37 °C, 5 min. From the text: HPLC of beta-alanine, Michaelis-Menten fit on CjADC (CorJei), L-aspartate α-decarboxylase from Corynebacterium jeikeium
Broadly, the Km is the concentration of substrate that gives half-maximal velocity. Take “CjADC (CorJei), L-aspartate α-decarboxylase from Corynebacterium jeikeium (Corynebacterium jeikeium K411; C26V/I88M)”: the Michaelis-Menten constant (Km) is reported as 3.6 ± 0.2 mM.
As a reminder, the kcat is the number of substrate molecules converted per active site and unit of time at saturation. As a reminder, the kcat/Km is the turnover number divided by the Michaelis constant. For “CjADC (CorJei), L-aspartate α-decarboxylase from Corynebacterium jeikeium (Corynebacterium jeikeium K411; C26V/I88M/R3K/Y90F)”, the Michaelis-Menten constant (Km) amounted to 2.2 ± 0.5 mM, the turnover number (kcat) was 209.2 ± 0.8 s⁻¹ and the kcat/Km is 95100 ± 1600 M⁻¹ s⁻¹.
As for “CjADC (CorJei), L-aspartate α-decarboxylase from Corynebacterium jeikeium (Corynebacterium jeikeium K411; C26V/I88M/Y90F)”, the Km is given as 2.6 ± 0.6 mM, the turnover number (kcat) came out at 171.5 ± 0.8 s⁻¹ and the kcat/Km worked out at 61200 ± 1300 M⁻¹ s⁻¹.
Regarding “CjADC (CorJei), L-aspartate α-decarboxylase from Corynebacterium jeikeium (Corynebacterium jeikeium K411; C26V/Y90F)”, the Km turned out to be 4.1 ± 0.3 mM.
For “CjADC (CorJei), L-aspartate α-decarboxylase from Corynebacterium jeikeium (Corynebacterium jeikeium K411; I88L/Y90F)”, the Michaelis-Menten constant (Km) is on record as 3.9 ± 0.1 mM, the catalytic constant (kcat) worked out at 88.6 ± 2.8 s⁻¹ and the catalytic efficiency (kcat/Km) amounted to 22700 ± 500 M⁻¹ s⁻¹.
Consider “CjADC (CorJei), L-aspartate α-decarboxylase from Corynebacterium jeikeium (Corynebacterium jeikeium K411; I88M/Y90F)”, for which the Michaelis-Menten constant (Km) is 3.2 ± 0.4 mM.

Substrate in the next data set: N[C@@H](CC(=O)O)C(=O)O
The data set can be described thus: purified protein. Particulars: sodium L-aspartate 1-100 mM, pH 7.0, 37 °C, 5 min.
On to B1, for which the Michaelis-Menten constant (Km) is 6.0 ± 0.2 mM.
With B2, the Michaelis constant (Km) turned out to be 3.6 ± 0.2 mM.
Take B3: the Michaelis-Menten constant (Km) was 8.9 ± 0.4 mM.
As to B4, the Km was found to be 4.2 ± 0.3 mM.
B5: the Km stood at 4.5 ± 0.1 mM.

Values taken from article PMC10743139, “Discovery and Engineering of a Novel Bacterial L-Aspartate α-Decarboxylase for Efficient Bioconversion” (Foods, 2023).
